B1: Kinesin-like protein KIF17 (Homo sapiens), Q9P2E2 (parent)
chain: MASEAVKVVVRCRPMNQRERELRCQPVVTVDCARAQCCIQNPGAADEPPKQFTFDGAYHVDHVTEQIYNEIAYPLVEGVTEGYNGTIFAYGQTGSGKSFTMQGLPDPPSQRGIIPRAFEHVFESVQCAENTKFLVRASYLEIYNEDVRDLLGADTKQKLELKEHPEKGVYVKGLSMHTVHSVAQCEHIMETGWKNRSVGYTLMNKDSSRSHSIFTISIEMSAVDERGKDHLRAGKLNLVDLAGSERQSKTGATGERLKEATKINLSLSALGNVISALVDGRCKHVPYRDSKLTRLLQDSLGGNTKTLMVACLSPADNNYDETLSTLRYANRAKNIRNKPRINEDPKDALLREYQEEIKKLKAILTQQMSPSSLSALLSRQVPPDPVQVEEKLLPQPVIQHDVEAEKQLIREEYEERLARLKADYKAEQESRARLEEDITAMRNSYDVRLSTLEENLRKETEAVLQVGVLYKAEVMSRAEFASSAEYPPAFQYETVVKPKVFSTTDTLPSDDVSKTQVSSRFAELPKVEPSKSEISLGSSESSSLEETSVSEAFPGPEEPSNVEVSMPTEESRSRYFLDECLGQEAAGHLLGEQNYLPQEEPQEVPLQGLLGLQDPFAEVEAKLARLSSTVARTDAPQADVPKVPVQVPAPTDLLEPSDARPEAEAADDFPPRPEVDLASEVALEVVRTAEPGVWLEAQAPVALVAQPEPLPATAGVKRESVGMEVAVLTDDPLPVVDQQQVLARLQLLEQQVVGGEQAKNKDLKEKHKRRKRYADERRKQLVAALQNSDEDSGDWVLLNVYDSIQEEVRAKSKLLEKMQRKLRAAEVEIKDLQSEFQLEKIDYLATIRRQERDSMLLQQLLEQVQPLIRRDCNYSNLEKILRESCWDEDNGFWKIPHPVITKTSLPVAVSTGPQNKPARKTSAADNGEPNMEDDRYRLMLSRSNSENIASNYFRSKRASQILSTDARKSLTHHNSPPGLSCPLSNNSAIPPTQAPEMPQPRPFRLESLDIPFTKAKRKKSKSNFGSEPL

Variants of: B1
Details: with tnpo1_human TNPO1, Q92973
Sequence of tnpo1_human TNPO1, Q92973 (Q92973 whole entry): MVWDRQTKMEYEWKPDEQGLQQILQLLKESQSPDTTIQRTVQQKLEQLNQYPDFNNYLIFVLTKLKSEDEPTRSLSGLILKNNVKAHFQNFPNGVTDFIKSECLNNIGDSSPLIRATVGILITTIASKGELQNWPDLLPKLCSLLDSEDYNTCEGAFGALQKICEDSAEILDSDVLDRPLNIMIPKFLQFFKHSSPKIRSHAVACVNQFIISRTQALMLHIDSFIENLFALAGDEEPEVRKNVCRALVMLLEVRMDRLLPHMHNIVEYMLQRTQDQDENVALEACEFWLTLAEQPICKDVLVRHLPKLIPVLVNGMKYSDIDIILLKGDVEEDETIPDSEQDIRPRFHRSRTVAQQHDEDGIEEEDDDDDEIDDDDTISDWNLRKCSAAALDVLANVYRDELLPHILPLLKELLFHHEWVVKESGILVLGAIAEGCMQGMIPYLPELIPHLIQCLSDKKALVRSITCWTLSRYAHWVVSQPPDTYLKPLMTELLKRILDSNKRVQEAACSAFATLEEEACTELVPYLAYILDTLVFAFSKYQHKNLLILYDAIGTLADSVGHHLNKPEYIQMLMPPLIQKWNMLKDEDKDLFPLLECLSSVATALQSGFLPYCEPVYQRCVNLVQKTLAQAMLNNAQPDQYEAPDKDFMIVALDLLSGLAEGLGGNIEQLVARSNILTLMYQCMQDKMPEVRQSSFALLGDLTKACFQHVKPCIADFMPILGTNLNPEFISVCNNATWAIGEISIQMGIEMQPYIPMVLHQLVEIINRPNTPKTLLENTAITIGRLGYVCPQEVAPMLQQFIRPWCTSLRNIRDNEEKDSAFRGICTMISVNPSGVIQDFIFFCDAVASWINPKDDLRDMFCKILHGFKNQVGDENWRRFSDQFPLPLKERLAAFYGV
For K1016A;R1017A;K1018A;K1019A, the “effect of a mutation on the interaction” value was “disrupting interaction strength”.
